Experimental data from US20260250420A1 (SICHUAN KELUN BIOTECH BIOPHARMACEUTICAL, published 2026).

T1: human PTK7 on cells (tumor cells endogenously expressing PTK7); CHO-hPTK7, CHO-S-hPTK7 and 293T-hPTK7 … (human, UniProt Q13308 31-1070)
T1 construct: whole, on cells; The cell line of each value is named under assay; also called H1299; H358
T1 sequence (looked up): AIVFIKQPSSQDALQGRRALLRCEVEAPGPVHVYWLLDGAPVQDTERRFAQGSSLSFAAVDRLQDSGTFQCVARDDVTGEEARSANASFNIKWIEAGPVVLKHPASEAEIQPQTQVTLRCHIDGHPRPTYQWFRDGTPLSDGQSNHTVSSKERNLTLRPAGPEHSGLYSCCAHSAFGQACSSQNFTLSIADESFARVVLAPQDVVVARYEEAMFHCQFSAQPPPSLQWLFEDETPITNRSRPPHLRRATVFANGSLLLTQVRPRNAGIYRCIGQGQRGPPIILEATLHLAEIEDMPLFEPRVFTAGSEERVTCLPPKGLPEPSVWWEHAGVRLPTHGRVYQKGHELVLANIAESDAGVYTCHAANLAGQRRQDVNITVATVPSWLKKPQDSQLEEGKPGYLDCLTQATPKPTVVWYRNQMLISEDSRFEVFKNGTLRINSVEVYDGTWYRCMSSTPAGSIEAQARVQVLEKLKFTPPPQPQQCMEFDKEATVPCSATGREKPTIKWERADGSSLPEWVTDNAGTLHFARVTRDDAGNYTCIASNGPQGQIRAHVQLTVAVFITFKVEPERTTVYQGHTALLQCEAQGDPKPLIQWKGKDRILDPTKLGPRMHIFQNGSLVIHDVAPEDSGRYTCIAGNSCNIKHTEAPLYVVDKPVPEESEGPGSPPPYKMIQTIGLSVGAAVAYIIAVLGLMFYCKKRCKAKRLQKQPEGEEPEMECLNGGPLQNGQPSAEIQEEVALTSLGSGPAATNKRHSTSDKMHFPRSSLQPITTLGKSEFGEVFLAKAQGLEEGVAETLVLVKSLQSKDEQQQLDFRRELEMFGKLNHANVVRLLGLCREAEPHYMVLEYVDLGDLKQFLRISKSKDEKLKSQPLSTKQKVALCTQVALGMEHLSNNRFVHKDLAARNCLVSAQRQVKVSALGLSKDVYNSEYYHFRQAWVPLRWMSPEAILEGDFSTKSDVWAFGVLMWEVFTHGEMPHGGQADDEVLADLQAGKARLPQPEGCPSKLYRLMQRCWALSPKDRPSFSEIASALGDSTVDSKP

T2: human PTK7 protein (extracellular sequence of human PTK7 with C-terminal 6×His tag) (human, UniProt Q13308 31-704)
T2 construct: extracellular domain; Expressed transiently in HEK293 cells; also called human PTK7-His; human PTK7-His protein
T2 sequence: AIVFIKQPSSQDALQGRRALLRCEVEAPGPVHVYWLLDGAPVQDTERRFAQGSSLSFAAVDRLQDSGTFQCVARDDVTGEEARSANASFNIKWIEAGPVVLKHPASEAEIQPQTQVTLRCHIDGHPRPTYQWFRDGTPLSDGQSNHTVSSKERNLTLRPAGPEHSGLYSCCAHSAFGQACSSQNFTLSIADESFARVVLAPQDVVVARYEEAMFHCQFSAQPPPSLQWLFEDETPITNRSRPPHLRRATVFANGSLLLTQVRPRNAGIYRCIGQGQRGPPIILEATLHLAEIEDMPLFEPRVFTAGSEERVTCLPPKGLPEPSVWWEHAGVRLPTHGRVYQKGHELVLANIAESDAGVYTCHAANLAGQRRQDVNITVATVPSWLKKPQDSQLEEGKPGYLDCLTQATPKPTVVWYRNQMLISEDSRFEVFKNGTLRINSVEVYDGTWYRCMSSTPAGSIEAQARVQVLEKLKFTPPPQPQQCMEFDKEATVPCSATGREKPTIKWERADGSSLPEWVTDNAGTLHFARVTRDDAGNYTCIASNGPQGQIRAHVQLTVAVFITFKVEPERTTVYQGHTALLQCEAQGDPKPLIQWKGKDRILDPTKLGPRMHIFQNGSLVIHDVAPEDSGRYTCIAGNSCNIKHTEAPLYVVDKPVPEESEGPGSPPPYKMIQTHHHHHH

B1: Hu24 (PTK7 control antibody, taken from Hu24 in the Patent CN201580030255) (antibody)
chain 1: QVQLVQSGPEVKKPGASVKVSCKASGYTFTDYAVHWVRQAPGKRLEWIGVISTYNDYTYNNQDFKGRVTMTRDTSASTAYMELSRLRSEDTAVYYCARGNSYFYALDYWGQGTSVTVSS
chain 2: EIVLTQSPATLSLSPGERATLSCRASESVDSYGKSFMHWYQQKPGQAPRLLIYRASNLESGIPARFSGSGSGTDFTLTISSLEPEDFAVYYCQQSNEDPWTFGGGTKLEIK
B2: 101A6HZ (anti-human PTK7 humanized antibody) (antibody, human IgG1, kappa)
heavy: not shown
light: DIVMTQSPDSLAVSLGERATINCKASQDVGSAVIWYQQKPGQSPKLLIYWASTRHTGVPDRFSGSGSGTDFTLTISSLQAEDVAVYYCQQYSSYPLTFGQGTKLEIKRTVAAPSVFIFPPSDEQLKSGTASVVCLLNNFYPREAKVQWKVDNALQSGNSQESVTEQDSKDSTYSLSSTLTLSKADYEKHKVYACEVTHQGLSSPVTKSFNRGEC
B3: 64A10HZ (anti-human PTK7 humanized antibody) (antibody, human IgG1, kappa, V domains shown)
VH: QVQLQESGPGLVKPSETLSLTCTVSGFSLTSYGVYWVRQPPGKGPEWLGVIWTSGNTNYNPSLKSRLTISKDNSKNQVSLKLSSVTAADTAVYYCVKHDGGNYVGVMNYWGQGTLVTVSS
VL: EIVMTQSPDFQSVTPKEKVTITCRASQSISDYLHWYQQKPDQSPKLLIKYASQSISGVPSRFSGSGSGSDFTLTINSLEAEDAATYYCQNGHSFPPTFGQGTKLEIKR
notes: Human IgG1 heavy chain constant region and human Kappa light chain constant region; expressed in CHO-S cells

What follows are binders tested against T1, human PTK7 on cells (tumor cells …) (assay: flow cytometry on T47D cells).
Excerpt: A flow cytometer (Beckman, Cytoflex) was used for detecting the affinity of the anti-human PTK7 chimeric and humanized antibodies with human non-small cell lung cancer cells H1299, human lung adenocarcinoma cells H1975, human breast cancer cells T47D, human ovarian cancer cells OVCAR-3 (all purchased from NANJING COBIOER BIOSCIENCES CO., LTD) and CHO-hPTK7 overexpression cells.
The adherent cells were digested by using a pancreatin (Gibco) solution; a proper amount of cells were counted and taken, washed twice by using 1×PBS, and re-suspended in a 1% BSA solution; and then the cells were transferred into a 96-well deep plate at a density of 50 μl/well; a candidate antibody was diluted by using 1% BSA, then 50 μl of diluted antibody was added into the deep plate containing the cells, and incubated for 40 min at 4° C.; the cells were washed twice by using PBS, then 50 μl of diluted secondary antibody was added into each well, uniformly mixed, and incubated for 30 min at 4° C.; and the cells were washed twice by using PBS, then re-suspended in 400 μl of PBS, and subjected to examination by flow cytometer.
Work on B1 yielded an EC50 of 0.0861 µg/mL. B2 was tested, and the EC50 was 0.0968 µg/mL. Work on B3 yielded an EC50 of 0.217 µg/mL.

Each binder was assayed against T2, human PTK7 protein (extracellular …) (assay: ELISA, coated human PTK7-His protein 1 µg/ml).
Procedure: The original data was imported into software for nonlinear curve fitting, and the EC₅₀ of binding of each antibody to the human PTK7 was calculated, respectively.
For B1, the EC50 was 0.0466 µg/mL. B2 showed an EC50 of 0.0266 µg/mL. Work on B3 yielded an EC50 of 0.0155 µg/mL.

Each binder was assayed against T1, human PTK7 on cells (tumor cells …) (assay: cell-based or functional assay).
For B1, the “FADU cell endocytosis activity, EC50” value was 0.18 µg/mL. B2 was tested, and the “FADU cell endocytosis activity, EC50” value was 0.115 µg/mL. B3 was tested, and the “FADU cell endocytosis activity, EC50” value was 0.147 µg/mL.
